Patent US8586530B2, “Modulation of inhibition of ferrochelatase by N-methyl protoporphyrin” (University of South Florida, priority 2006, dated 2013)

What was measured:
[1] = tested on: E. coli Δvis cells; assay: Genetic selection in E. coli: growth of Δvis transformants on NMPP-containing plates; assay type: cell-based, Escherichia coli; details: medium containing more than 20 μM NMPP
Description: To isolate Escherichia coli Δvis transformants harboring loop variants more tolerant to NMPP than wild-type ferrochelatase, 33 variants isolated from a library of 214 functional, ferrochelatase clones were plated on LB-ampicilin medium containing 0.2 μM, 2 μM or 20 μM NMPP. E. coli Δvis cells can only grow when hemin is added to the medium or when the cells are transformed with an active ferrochelatase expression plasmid. Transformants harboring a subset of the functional loop variants including K250N, V251L, P255R, P255G, K250M/V251L/W256Y and Q248P/S249G/250P/G252W were grown onto LB-ampicilin plates with increasing concentrations of NMPP. […] Based on this observation, the P255 variants were selected for further characterization.
Genetic Selection in E. coli. E. coli Δvis cells harboring plasmids encoding active, ferrochelatase variants isolated from a random sequence library of the loop motif were grown 16-18 h at 37° C. in LB agar medium containing 50 μg/mL of ampicillin and varying concentrations of NMPP. For the preparation of the NMPP-containing LB-ampicilin agar plates, a 2 mM stock solution of NMPP was made by dissolving NMPP in 20 mM NH4OH containing 2% Tween-20. The solution was filter-sterilized and kept at 4° C. The stock solution was diluted 100-, 1000- and 10000-fold to prepare LB-ampicilin plates containing 20 μM, 2 μM and 0.2 μM NMPP. Δvis cells transformed with wild-type ferrochelatase and functional variants were grown in LB medium containing 50 μg/mL ampicilin and 0.4% (w/v) glucose at 37° C., overnight, with shaking at 220 RPM. Each of the overnight cultures was diluted 20-fold into fresh medium and grown at 37° C. for ˜1 hr until OD600 reached ˜0.4-0.5. Subsequently, these cultures were diluted with LB medium by 10^6 and 100 μl aliquots of the diluted stock were spread on LB-ampicilin agar plates and LB-ampicilin agar plates containing NMPP at 0.2 μM, 2 μM and 20 μM, respectively. The plates were incubated at 37° C. for 16 hr, and the colonies on each plate were counted. […]

[2] = Steady-state kinetics of ferrochelatase and P255 variants; assay type: biochemical, murine; details: for Km: protoporphyrin, read-out: Km^PPIX
Excerpt: One possible explanation for these findings is that the mechanism of interaction between the enzyme and the protoporphyrin substrate differs from that for inhibitor binding. It is conceivable that the active site of ferrochelatase is optimized for interaction with the protoporphyrin substrate and retains a certain degree of plasticity towards this end. Possibly, this facilitates the induction of porphyrin deformation in the protein matrix, and in so doing, ensures the catalytic reaction to proceed. In contrast, the constraints of the active site towards NMPP are presumably more stringent than towards the protoporphyrin substrate and any alterations of the active site affect the selectivity towards NMPP. Another possible explanation, and not necessarily mutually exclusive from the former, is that mutations introduced in the active site (e.g., at the P255 position) cause an alteration of the regiospecificity of ferrochelatase, such that the mutated active site can accommodate either a regioisomer or a combination of regioisomers of NMPP different from those of the wild-type active site. It is worth noting that 1) the commercially available NMPP used in this study consists of a racemic mixture of the eight potential isomers and 2) only one NMPP isomer was identified in the crystal structure of the B. subtillis ferrochelatase.
Protein Purification. Wild-type, murine ferrochelatase and variants were over-expressed, under the control of the E. coli alkaline phosphatase promoter phoA, in BL21(DE3) cells. The purification of the recombinant proteins bearing a N-terminal penta-histidine tag, assessment of the purity by sodium dodecyl sulfate-polyacrylamide gel electrophoresis and determination of protein concentration and enzymatic activity were as described previously (Shi and Ferreira 2004).

B1: P255R: murine ferrochelatase variant in which P255 was replaced with arginine (protein, UniProt P22315 54-422, looked up, variant P255R)
Ferrochelatase, mitochondrial: TTKPQAQPERRKPKTGILMLNMGGPETLGEVQDFLQRLFLDRDLMTLPIQNKLAPFIAKRRTPKIQEQYRRIGGGSPIKMWTSKQGEGMVKLLDELSPATAPHKYYIGFRYVHPLTEEAIEEMERDGLERAIAFTQYPQYSCSTTGSSLNAIYRYYNEVGQKPTMKWSTIDRWPTHPLLIQCFADHILKELNHFPEEKRSEVVILFSAHSLPMSVVNRGDPYPQEVGATVHKVMEKLGYPNPYRLVWQSKVGPVRWLGPQTDEAIKGLCERGRKNILLVPIAFTSDHIETLYELDIEYSQVLAQKCGAENIRRAESLNGNPLFSKALADLVHSHIQSNKLCSTQLSLNCPLCVNPVCRKTKSFFTSQQL
Q: Which results are given for B1?
A: colony formation of Δvis cells expressing the enzyme [1]: could form colonies; kcat [2]: 0.13 ± 0.013 s⁻¹; Km [2]: 2.65 ± 0.44 µM

B2: wild-type ferrochelatase: recombinant wild-type, murine ferrochelatase with N-terminal penta-histidine tag (protein, UniProt P22315 54-422, looked up)
Ferrochelatase, mitochondrial: TTKPQAQPERRKPKTGILMLNMGGPETLGEVQDFLQRLFLDRDLMTLPIQNKLAPFIAKRRTPKIQEQYRRIGGGSPIKMWTSKQGEGMVKLLDELSPATAPHKYYIGFRYVHPLTEEAIEEMERDGLERAIAFTQYPQYSCSTTGSSLNAIYRYYNEVGQKPTMKWSTIDRWPTHPLLIQCFADHILKELNHFPEEKRSEVVILFSAHSLPMSVVNRGDPYPQEVGATVHKVMEKLGYPNPYRLVWQSKVGPVPWLGPQTDEAIKGLCERGRKNILLVPIAFTSDHIETLYELDIEYSQVLAQKCGAENIRRAESLNGNPLFSKALADLVHSHIQSNKLCSTQLSLNCPLCVNPVCRKTKSFFTSQQL
Q: With B2 as the molecule, how does the “colony formation of Δvis cells expressing the enzyme” value [1] read?
A: The value was “could not”.

Q: And the kcat [2]?
A: Its kcat is 0.0683 ± 0.005 s⁻¹.

Q: What about the Km [2] of the same molecule?
A: The Km was 1.4 ± 0.2 µM.

B3: P255G: murine ferrochelatase variant in which P255 was replaced with glycine (protein, UniProt P22315 54-422, looked up, variant P255G)
Ferrochelatase, mitochondrial: TTKPQAQPERRKPKTGILMLNMGGPETLGEVQDFLQRLFLDRDLMTLPIQNKLAPFIAKRRTPKIQEQYRRIGGGSPIKMWTSKQGEGMVKLLDELSPATAPHKYYIGFRYVHPLTEEAIEEMERDGLERAIAFTQYPQYSCSTTGSSLNAIYRYYNEVGQKPTMKWSTIDRWPTHPLLIQCFADHILKELNHFPEEKRSEVVILFSAHSLPMSVVNRGDPYPQEVGATVHKVMEKLGYPNPYRLVWQSKVGPVGWLGPQTDEAIKGLCERGRKNILLVPIAFTSDHIETLYELDIEYSQVLAQKCGAENIRRAESLNGNPLFSKALADLVHSHIQSNKLCSTQLSLNCPLCVNPVCRKTKSFFTSQQL
Q: With B3 as the molecule, how does the “colony formation of Δvis cells expressing the enzyme” value [1] read?
A: The value was “could form colonies”.

Q: And the kcat [2]?
A: The kcat was 0.0983 ± 0.0233 s⁻¹.

Q: What about the Km [2] of the same molecule?
A: The Km was 2.51 ± 0.8 µM.
